Data as given in PMC10643153.
Where “and” joins values, the source holds several entries; their conditions need not be identical. Identical values can stand only once.

Key:
[1] = molecular target: recombinant goldfish AdipoQ (His-tagged gAdipoQ) (goldfish (Carassius auratus)); assay: native gel or EMSA; self-association; protein electrophoresis in native gel under non-denaturing conditions, Coomassie blue staining; parallel SDS-PAGE as reference for the monomer
[2] = molecular target: recombinant goldfish AdipoQ (His-tagged gAdipoQ) (goldfish (Carassius auratus)); assay: SEC-MALS; self-association; top five fractions of the SEC peak pooled, 200-µl sample on a Superose 12 10/300 GL column linked with a DynaPro NanoStar instrument; apparent MW in solution

stoichiometry N [1]: 3 and 6 | stoichiometry N [2]: 3
Substance: recombinant goldfish AdipoQ (His-tagged gAdipoQ) (domain or fragment)
